Measurements published in patent publication US20250073302A1 (PURDUE RESEARCH FOUNDATION, published 2025).
Non-standard residues stand in square brackets, D forms with d. No end group written: not given here. Bpa = N[C@@H](Cc1ccc(C(=O)c2ccccc2)cc1)C(=O)O; dPra = C#CC[C@@H](N)C(=O)O; dDap = NC[C@@H](N)C(=O)O

B1: CyPPS23 (peptide)
peptide: cyclo(T[dL]F[dF]R[dDap])
SMILES: CC(C)C[C@H]1NC(=O)[C@H]([C@@H](C)O)NC(=O)[C@@H](CN)NC(=O)[C@H](CCCNC(=N)N)NC(=O)[C@@H](Cc2ccccc2)NC(=O)[C@H](Cc2ccccc2)NC1=O
B2: CyPPS14 (peptide)
peptide: cyclo(T[dPra]F[dF]R[dA])
SMILES: C#CC[C@H]1NC(=O)[C@H]([C@@H](C)O)NC(=O)[C@@H](C)NC(=O)[C@H](CCCNC(=N)N)NC(=O)[C@@H](Cc2ccccc2)NC(=O)[C@H](Cc2ccccc2)NC1=O
B3: CyPPS13 (peptide)
peptide: cyclo(T[dV]F[dF]R[dA])
SMILES: CC(C)[C@H]1NC(=O)[C@H]([C@@H](C)O)NC(=O)[C@@H](C)NC(=O)[C@H](CCCNC(=N)N)NC(=O)[C@@H](Cc2ccccc2)NC(=O)[C@H](Cc2ccccc2)NC1=O
B4: CyPPS8 (peptide)
peptide: cyclo(D[dL]F[dF]R[dA])
SMILES: CC(C)C[C@H]1NC(=O)[C@H](CC(=O)O)NC(=O)[C@@H](C)NC(=O)[C@H](CCCNC(=N)N)NC(=O)[C@@H](Cc2ccccc2)NC(=O)[C@H](Cc2ccccc2)NC1=O
B5: CyPPS1 (peptide)
peptide: cyclo(T[dL]F[dF]R[dA])
SMILES: CC(C)C[C@H]1NC(=O)[C@H]([C@@H](C)O)NC(=O)[C@@H](C)NC(=O)[C@H](CCCNC(=N)N)NC(=O)[C@@H](Cc2ccccc2)NC(=O)[C@H](Cc2ccccc2)NC1=O
B6: CyPPS32 (peptide)
peptide: cyclo(T[dL][Bpa][dF]R[dA])
SMILES: CC(C)C[C@H]1NC(=O)[C@H]([C@@H](C)O)NC(=O)[C@@H](C)NC(=O)[C@H](CCCNC(=N)N)NC(=O)[C@@H](Cc2ccccc2)NC(=O)[C@H](Cc2ccc(C(=O)c3ccccc3)cc2)NC1=O
B7: CyPPS35 (peptide)
peptide: cyclo(T[dA]F[dF]A[dR])
SMILES: C[C@@H]1NC(=O)[C@@H](Cc2ccccc2)NC(=O)[C@H](Cc2ccccc2)NC(=O)[C@@H](C)NC(=O)[C@H]([C@@H](C)O)NC(=O)[C@@H](CCCNC(=N)N)NC1=O
B8: CyPPS4 (peptide)
peptide: cyclo(T[dL]A[dF]R[dA])
SMILES: CC(C)C[C@H]1NC(=O)[C@H]([C@@H](C)O)NC(=O)[C@@H](C)NC(=O)[C@H](CCCNC(=N)N)NC(=O)[C@@H](Cc2ccccc2)NC(=O)[C@H](C)NC1=O
B9: CyPPS36 (peptide)
peptide: cyclo(A[dA]F[dF]A[dR])
SMILES: C[C@@H]1NC(=O)[C@@H](CCCNC(=N)N)NC(=O)[C@H](C)NC(=O)[C@@H](Cc2ccccc2)NC(=O)[C@H](Cc2ccccc2)NC(=O)[C@@H](C)NC1=O
B10: CyPPS7 (peptide)
peptide: cyclo(K[dL]F[dF]R[dA])
SMILES: CC(C)C[C@H]1NC(=O)[C@H](CCCCN)NC(=O)[C@@H](C)NC(=O)[C@H](CCCNC(=N)N)NC(=O)[C@@H](Cc2ccccc2)NC(=O)[C@H](Cc2ccccc2)NC1=O
B11: CyPPS5 (peptide)
peptide: cyclo(T[dL]F[dA]R[dA])
SMILES: CC(C)C[C@H]1NC(=O)[C@H]([C@@H](C)O)NC(=O)[C@@H](C)NC(=O)[C@H](CCCNC(=N)N)NC(=O)[C@@H](C)NC(=O)[C@H](Cc2ccccc2)NC1=O
B12: CyPPS34 (peptide)
peptide: cyclo(TAF[dF]A[dR])
SMILES: C[C@@H]1NC(=O)[C@H]([C@@H](C)O)NC(=O)[C@@H](CCCNC(=N)N)NC(=O)[C@H](C)NC(=O)[C@@H](Cc2ccccc2)NC(=O)[C@H](Cc2ccccc2)NC1=O
B13: CyPPS9 (peptide)
peptide: cyclo(V[dL]F[dF]R[dA])
SMILES: CC(C)C[C@H]1NC(=O)[C@H](C(C)C)NC(=O)[C@@H](C)NC(=O)[C@H](CCCNC(=N)N)NC(=O)[C@@H](Cc2ccccc2)NC(=O)[C@H](Cc2ccccc2)NC1=O
B14: CyPPS6 (peptide)
peptide: cyclo(T[dL]F[dF]A[dR])
SMILES: CC(C)C[C@H]1NC(=O)[C@H]([C@@H](C)O)NC(=O)[C@@H](CCCNC(=N)N)NC(=O)[C@H](C)NC(=O)[C@@H](Cc2ccccc2)NC(=O)[C@H](Cc2ccccc2)NC1=O

molecular target: 20S core particle (CP) proteasome; assay: cell-based or functional assay

EC50, dose-response of 20S CP stimulation [µM] | Emax, dose-response of 20S CP stimulation | Binder
4.1 | 391 | B1
12.1 | 514 | B2
4 | 394 | B3
14.2 | 701 | B4
6.4 | 283 | B5

molecular target: 20S core particle (CP) proteasome; assay: cell-based or functional assay; remark: another data set of the same source

TAS-1 (percent stimulation of 20S CP) | Binder
238 % of DMSO | cyclo(T[dL]F[dF]R[dPra]) [CyPPS33]
352 % of DMSO | B1
388 % of DMSO | B2
242 % of DMSO | B6
259 % of DMSO | B7
275 % of DMSO | B8
422 % of DMSO | B3
185 % of DMSO | B9
372 % of DMSO | B4
226 % of DMSO | B10
126 % of DMSO | TLFFRA (also: linear version of CyPPS1, D-residues not given here) [PPS1]
170 % of DMSO | B11
126 % of DMSO | B12
310 % of DMSO | B13
340 % of DMSO | B5
305 % of DMSO | B14

molecular target: cytosolic proteasome in HEK293 T cells; assay: cell-based or functional assay

In-Cellulo (flow cytometry with epoxomicin probe, HEK293 T cells) [not printed] | Binder
247 | B1
231 | B2
174 | B3
161 | B4
83.7 | TLFFRA (also: linear version of CyPPS1, D-residues not given here) [PPS1]
235 | B5
